The values that follow come from US20220273789A1.

In one assay the target is human IgG (human). Description: BLI (Octet), gEgI on Ni-NTA sensor, hIgG in solution. (In general: In BLI a coated tip is dipped into the sample, and binding shifts an interference pattern.)
The target in assay [1] is Human IgG isotype control (ThermoFischer Scientific, ref 12000C) (human). Description: BLI, gEgI on Ni-NTA tips, hIgG in solution.

Turning to “HSV2-gE_R314G V340R_gI (from UniProt P89475 21-416; P06764 21-256) (receptor)”, in the assay with human IgG (human), the Kd (usually a measure of binding affinity in units of concentration) was found to be 394 nM; the Response stood at 0.439 nm; the koff – broadly, the first-order rate constant of dissociation – was 0.00245 s⁻¹; the kon (in general, the second-order rate constant of association) came to 6230 M⁻¹ s⁻¹.

In the assay with human IgG (human), “HSV2-gE_R314G V340W_gI (from UniProt P89475 21-416; P06764 21-256) (receptor)” yielded a Kd of 1010 nM, a Response of 0.144 nm, a koff of 0.00543 s⁻¹ and an on-rate constant (kon) of 5400 M⁻¹ s⁻¹.

In the assay with human IgG (human), “HSV2-gE_R314L F322A_gI (from UniProt P89475 21-416; P06764 21-256) (receptor)” showed a Kd of 303 nM, a Response of 0.603 nm, a koff of 0.00385 s⁻¹ and an on-rate (kon) of 12700 M⁻¹ s⁻¹.

On to “HSV2-gE_R314L F322I_gI (from UniProt P89475 21-416; P06764 21-256) (receptor)”, for which, in the assay with human IgG (human), the Kd was 274 nM, the Response came out at 0.433 nm, the dissociation rate constant (koff) came out at 0.00277 s⁻¹ and the kon is 10100 M⁻¹ s⁻¹.

In the assay with human IgG (human), “HSV2-gE_R314L F322P_gI (from UniProt P89475 21-416; P06764 21-256) (receptor)” returned an equilibrium dissociation constant (Kd) of 210 nM, a Response of 0.607 nm, a koff of 0.00255 s⁻¹ and a kon of 12100 M⁻¹ s⁻¹.

In the assay with human IgG (human), “HSV2-gE_R314L P318D_gI (from UniProt P89475 21-416; P06764 21-256) (receptor)” had a Kd of under 0.001 nM, a Response of 0.134 nm, a koff of under 1e-07 s⁻¹ and a kon of 7900 M⁻¹ s⁻¹.

Take “HSV2-gE_R314L P318I_gI (from UniProt P89475 21-416; P06764 21-256) (receptor)”: in the assay with human IgG (human), the Kd turned out to be 261 nM, the Response amounted to 0.294 nm, the off-rate (koff) worked out at 0.00198 s⁻¹ and the kon was found to be 7580 M⁻¹ s⁻¹.

For “HSV2-gE_R314L P318R_gI (from UniProt P89475 21-416; P06764 21-256) (receptor)”, in the assay with human IgG (human), the dissociation constant Kd was under 0.001 nM, the Response was found to be 0.202 nm, the koff was under 1e-07 s⁻¹ and the kon is 8050 M⁻¹ s⁻¹.

“HSV2-gE_R314L V340M_gI (from UniProt P89475 21-416; P06764 21-256) (receptor)”: in the assay with human IgG (human), the Kd was 452 nM, the Response worked out at 0.427 nm, the koff was determined as 0.00456 s⁻¹ and the kon came out at 10100 M⁻¹ s⁻¹.

In the assay with human IgG (human), “HSV2-gE_R314L V340R_gI (from UniProt P89475 21-416; P06764 21-256) (receptor)” displayed a Kd of 615 nM, a Response of 0.284 nm, a koff of 0.00307 s⁻¹ and an on-rate constant (kon) of 4990 M⁻¹ s⁻¹.

In the assay with human IgG (human), “HSV2-gE_R314L V340W_gI (from UniProt P89475 21-416; P06764 21-256) (receptor)” displayed a Kd of 914 nM, a Response of 0.148 nm, a koff of 0.00524 s⁻¹ and a kon of 5740 M⁻¹ s⁻¹.

Take “HSV2-gE_R314P F322A_gI (from UniProt P89475 21-416; P06764 21-256) (receptor)”: in the assay with human IgG (human), the Kd was determined as 247 nM, the Response came to 0.655 nm, the koff amounted to 0.00423 s⁻¹ and the kon is 17100 M⁻¹ s⁻¹.

For “HSV2-gE_R314P F322I_gI (from UniProt P89475 21-416; P06764 21-256) (receptor)”, in the assay with human IgG (human), the Kd came out at 300 nM, the Response was found to be 0.389 nm, the koff turned out to be 0.0036 s⁻¹ and the kon was 12000 M⁻¹ s⁻¹.

As for “HSV2-gE_R314P F322P_gI (from UniProt P89475 21-416; P06764 21-256) (receptor)”, in the assay with human IgG (human), the Kd came to 283 nM, the Response was determined as 0.561 nm, the off-rate (koff) was 0.00356 s⁻¹ and the kon was 12600 M⁻¹ s⁻¹.

In the assay with human IgG (human), “HSV2-gE_R314P P318D_gI (from UniProt P89475 21-416; P06764 21-256) (receptor)” had a Kd of 222 nM, a Response of 0.306 nm, a koff of 0.00145 s⁻¹ and a kon of 6520 M⁻¹ s⁻¹.

On to “HSV2-gE_R314P P318I_gI (from UniProt P89475 21-416; P06764 21-256) (receptor)”, for which, in the assay with human IgG (human), the Kd was determined as 277 nM, the Response is 0.248 nm, the off-rate constant (koff) came to 0.00223 s⁻¹ and the kon was 8040 M⁻¹ s⁻¹.

Consider “HSV2-gE_R314P P318R_gI (from UniProt P89475 21-416; P06764 21-256) (receptor)”, for which, in the assay with human IgG (human), the Kd turned out to be 317 nM, the Response was 0.371 nm, the koff was 0.00199 s⁻¹ and the kon was 6270 M⁻¹ s⁻¹.

For “HSV2-gE_R314P V340M_gI (from UniProt P89475 21-416; P06764 21-256) (receptor)”, in the assay with human IgG (human), the Kd amounted to 402 nM, the Response was determined as 0.525 nm, the koff was 0.0046 s⁻¹ and the kon worked out at 11400 M⁻¹ s⁻¹.

Turning to “HSV2-gE_R314P V340R_gI (from UniProt P89475 21-416; P06764 21-256) (receptor)”, in the assay with human IgG (human), the Kd stood at 459 nM, the Response amounted to 0.351 nm, the koff turned out to be 0.00241 s⁻¹ and the kon is 5260 M⁻¹ s⁻¹.

As to “HSV2-gE_R314P V340W_gI (from UniProt P89475 21-416; P06764 21-256) (receptor)”, in the assay with human IgG (human), the Kd was found to be 560 nM, the Response came out at 0.134 nm, the koff was found to be 0.00355 s⁻¹ and the kon was found to be 6340 M⁻¹ s⁻¹.

Take “HSV34 (HSV2-gE_gI) (from UniProt P89475 21-416; P06764 21-256) (receptor)”: in assay [1], the dissociation constant (Kd) amounted to 116 nM, the Relative Affinity (%) compared to control construct HSV34 is 100%, the koff was 0.000541 s⁻¹ and the association rate constant (kon) amounted to 3870 M⁻¹ s⁻¹.

In assay [1], “HSV40 (HSV2- gE_289_insert ADIGL_gI) (from UniProt P89475 21-416; P06764 21-256) (receptor)” had a Kd of 628 nM, a Relative Affinity (%) compared to control construct HSV34 of 18%, a koff of 0.00519 s⁻¹ and a kon of 8240 M⁻¹ s⁻¹.

In the case of “HSV41 (HSV2-gE_338_insert ARAA_gI) (from UniProt P89475 21-416; P06764 21-256) (receptor)”, in assay [1], the Kd came out at 1600 nM, the Relative Affinity (%) compared to control construct HSV34 was found to be 7%, the koff came to 0.00309 s⁻¹ and the on-rate (kon) came to 2010 M⁻¹ s⁻¹.

In assay [1], “HSV42 (HSV2- gE_346_insert ADIT_gI) (from UniProt P89475 21-416; P06764 21-256) (receptor)” registered a koff of under 1e-07 s⁻¹ and a kon of 5690 M⁻¹ s⁻¹.

As for “HSV43 (HSV2- gE_H245A_gI) (from UniProt P89475 21-416; P06764 21-256) (receptor)”, in assay [1], the koff was under 1e-07 s⁻¹ and the kon was determined as 9410 M⁻¹ s⁻¹.

In assay [1], “HSV44 (HSV2- gE_H245K_gI) (from UniProt P89475 21-416; P06764 21-256) (receptor)” returned a Kd of 673 nM, a Relative Affinity (%) compared to control construct HSV34 of 17%, a koff of 0.00628 s⁻¹ and a kon of 9550 M⁻¹ s⁻¹.

In assay [1], “HSV46 (HSV2- gE_P319A_gI) (from UniProt P89475 21-416; P06764 21-256) (receptor)” yielded a Kd of 73.5 nM, a Relative Affinity (%) compared to control construct HSV34 of 158%, a koff of 0.000482 s⁻¹ and a kon of 6630 M⁻¹ s⁻¹.

For “HSV47 (HSV2- gE_P319R_gI) (from UniProt P89475 21-416; P06764 21-256) (receptor)”, in assay [1], the Kd was found to be 2550 nM, the Relative Affinity (%) compared to control construct HSV34 turned out to be 5%, the koff was found to be 0.00355 s⁻¹ and the kon was 1490 M⁻¹ s⁻¹.

In assay [1], “HSV48 (HSV2- gE_P319G_gI) (from UniProt P89475 21-416; P06764 21-256) (receptor)” yielded a Kd of 700 nM, a Relative Affinity (%) compared to control construct HSV34 of 17%, a koff of 0.00556 s⁻¹ and a kon of 8130 M⁻¹ s⁻¹.

Turning to “HSV49 (HSV2- gE_P319K_gI) (from UniProt P89475 21-416; P06764 21-256) (receptor)”, in assay [1], the Kd was found to be 1710 nM, the Relative Affinity (%) compared to control construct HSV34 stood at 7%, the koff worked out at 0.00217 s⁻¹ and the kon is 1340 M⁻¹ s⁻¹.

In assay [1], “HSV50 (HSV2- gE_P319T_gI) (from UniProt P89475 21-416; P06764 21-256) (receptor)” yielded a Kd of 8.91 nM, a Relative Affinity (%) compared to control construct HSV34 of 1300%, a koff of 8.38e-05 s⁻¹ and a kon of 9460 M⁻¹ s⁻¹.

For “HSV51 (HSV2- gE_H245A-P319A_gI) (from UniProt P89475 21-416; P06764 21-256) (receptor)”, in assay [1], the koff is under 1e-07 s⁻¹ and the kon was 11000 M⁻¹ s⁻¹.

Consider “HSV52 (HSV2- gE_H245A-P319R_gI) (from UniProt P89475 21-416; P06764 21-256) (receptor)”, for which, in assay [1], the Kd was determined as 2530 nM, the Relative Affinity (%) compared to control construct HSV34 amounted to 5%, the off-rate constant (koff) worked out at 0.00304 s⁻¹ and the kon amounted to 1310 M⁻¹ s⁻¹.

Consider “HSV53 (HSV2- gE_H245A-P319G_gI) (from UniProt P89475 21-416; P06764 21-256) (receptor)”, for which, in assay [1], the dissociation constant (Kd) stood at 807 nM, the Relative Affinity (%) compared to control construct HSV34 is 14%, the koff was 0.00349 s⁻¹ and the kon was found to be 4480 M⁻¹ s⁻¹.

As for “HSV54 (HSV2- gE_H245A-P319K_gI) (from UniProt P89475 21-416; P06764 21-256) (receptor)”, in assay [1], the Kd worked out at 883 nM, the Relative Affinity (%) compared to control construct HSV34 was 13%, the koff was found to be 0.00284 s⁻¹ and the kon was found to be 3370 M⁻¹ s⁻¹.

In assay [1], “HSV55 (HSV2- gE_H245A-P319T_gI) (from UniProt P89475 21-416; P06764 21-256) (receptor)” displayed a Kd of 201 nM, a Relative Affinity (%) compared to control construct HSV34 of 58%, a koff of 0.00105 s⁻¹ and a kon of 5330 M⁻¹ s⁻¹.

On to “HSV56 (HSV2- gE_A337G_gI) (from UniProt P89475 21-416; P06764 21-256) (receptor)”, for which, in assay [1], the Kd was determined as 98.9 nM, the Relative Affinity (%) compared to control construct HSV34 stood at 117%, the koff amounted to 0.00082 s⁻¹ and the kon was 8430 M⁻¹ s⁻¹.
